Source: paper PMC12114895, “Lanthanides-Based Nanoparticles Conjugated with Rose Bengal for FRET-Mediated X-Ray-Induced PDT” (Pharmaceuticals, 2025)
Ends that are not written are not given here. RB = not defined here

Columns and labels:
[1] = Singlet oxygen production quantum yield; format: physicochemical; settings: D2O, reference Eosin Y
[2] = Hydrodynamic size by TDA-ICP-MS; format: physicochemical; settings: Table 4, listed as AGuIX Ln@Mal-K(RB)DKPPR (Ln = Tb)
Description: TDA experiments were conducted using a TDA-ICP-MS hyphenation between a Sciex P/ACE MDQ instrument and a 7700 Agilent ICP-MS. Fused silica capillaries with an inner diameter of 75 µm and outer diameter of 375 µm, and a total length of 64 cm, were coated with hydroxypropylcellulose (HPC) using a solution of 0.05 g mL^−1 in water. Detection was carried out by ICP-MS at m/z = 158 and m/z = 159 for Gd and Tb detection, respectively. Samples were hydrodynamically injected (0.3psi for 3 s), then mobilized using Tris 10 mM and NaCl 125 mM at 0.7 psi. Between runs, the capillary was flushed at 5 psi for 5 min with the mobilization medium. All measurements were performed at least in duplicates.
The detected peak was fitted by a sum of Gaussian distributions using Origin 8.5 software, according to Equation (8).(8) St=∑i=12Ai/σi 2πexp−t−t0^2/2σi2 where t0 is the peak residence time, and […] are the area under the curve and the temporal variance associated with each species i, respectively.
Under these experimental conditions, the molecular diffusion coefficient D is given by(9) D=Rc2t0/24σ^2=2kBT/6πηDh where Rc is the capillary radius, kB is the Boltzmann constant, T is the temperature, η is the viscosity, and Dh is the hydrodynamic diameter of the solute.
Therefore, using Equation (9), the hydrodynamic diameters can be calculated from the temporal variances measured from the fitted Taylorgram.

[3] = Fluorescence quantum yield; format: physicochemical; settings: D2O, λexc = 558 nm; reference tetraphenylporphyrin
Description: (§1) Absorption spectra were recorded on a UV-3600 UV–visible double beam spectrophotometer (Shimadzu, Marne-La-Vallée, France). Fluorescence spectra were recorded on a Fluorolog FL3-222 spectrofluorimeter (Horiba Jobin Yvon, Palaiseau, France) equipped with a 450 W Xenon lamp and thermostated cell compartment (25 °C), a UV–visible photomultiplier R928 (Hamamatsu Photonics, Hamamatsu, Japan) and an InGaAs infrared detector (DSS-16A020L Electro-Optical System Inc, Phoenixville, PA, USA). The excitation beam was diffracted by a double ruled grating SPEX monochromator (1200 grooves/mm blazed at 330 nm). The emission beam was diffracted by a double ruled grating SPEX monochromator (1200 grooves/mm blazed at 500 nm). Singlet oxygen emission was detected through a double ruled grating SPEX monochromator (600 grooves/mm blazed at 1 µm) and a long-wave pass (780 nm). All spectra were measured in four-face quartz vials.
The fluorescence quantum yield (Φf) is calculated using Equation (6).(6) Φf=Φf0 . If/If0.OD0/OD. (n/n0)^2 where Φf and Φf0, If and If0, OD and OD0, n and n0 are the quantum yields, fluorescence intensities, optical densities, and refractive indices of the sample and reference, respectively.
Tetraphenylporphyrin (TPP) was chosen as the fluorescence reference standard (Φf0 = 0.11, toluene).

U-251 MG cells = test: Anchorage-dependent clonogenic assay with X-ray irradiation; format: cell-based, human; settings: [RB] = 1 µM, 24 h, clones after 7 days
RB fluorescence lifetime = format: physicochemical; settings: D2O, λexc = 470 nm; listed as AGuIX Ln@Mal-K(RB)DKPPR (Ln = Tb)
Description: The Ln luminescence lifetime is recorded after excitation at 545 nm for Tb and 313 nm for Gd. The fluorescence lifetime of RB is recorded after excitation at 470 nm ( τf470 ). ^1O2 emission spectra are obtained after excitation at 558 nm (maximum absorption wavelength of RB) but also after excitation at 351 nm for Tb and 273 nm for Gd.
as §1

Zeta potential = format: physicochemical; settings: DLS, Zetasizer Nano-Z, He-Ne 633 nm; pH 7.2 mentioned; listed as AGuIX Ln@Mal-K(RB)DKPPR (Ln = Tb)
Description: The zeta potential (ξ) for each NPs was determined using Zetasizer Nano-Z (Malvern, UK) equipped with a He-Ne laser at 633 nm.

Ln luminescence lifetime = format: physicochemical; settings: D2O, λexc/λdetection = 351/545 nm
NRP-1 = NRP-1 (Homo sapiens, UniProt O14786); test: NRP-1 binding, competitive assay; settings: printed in the figure, read-out: IC50 ± SD (NRP-1, Figure 12)
Chain of NRP-1 (O14786 22-923): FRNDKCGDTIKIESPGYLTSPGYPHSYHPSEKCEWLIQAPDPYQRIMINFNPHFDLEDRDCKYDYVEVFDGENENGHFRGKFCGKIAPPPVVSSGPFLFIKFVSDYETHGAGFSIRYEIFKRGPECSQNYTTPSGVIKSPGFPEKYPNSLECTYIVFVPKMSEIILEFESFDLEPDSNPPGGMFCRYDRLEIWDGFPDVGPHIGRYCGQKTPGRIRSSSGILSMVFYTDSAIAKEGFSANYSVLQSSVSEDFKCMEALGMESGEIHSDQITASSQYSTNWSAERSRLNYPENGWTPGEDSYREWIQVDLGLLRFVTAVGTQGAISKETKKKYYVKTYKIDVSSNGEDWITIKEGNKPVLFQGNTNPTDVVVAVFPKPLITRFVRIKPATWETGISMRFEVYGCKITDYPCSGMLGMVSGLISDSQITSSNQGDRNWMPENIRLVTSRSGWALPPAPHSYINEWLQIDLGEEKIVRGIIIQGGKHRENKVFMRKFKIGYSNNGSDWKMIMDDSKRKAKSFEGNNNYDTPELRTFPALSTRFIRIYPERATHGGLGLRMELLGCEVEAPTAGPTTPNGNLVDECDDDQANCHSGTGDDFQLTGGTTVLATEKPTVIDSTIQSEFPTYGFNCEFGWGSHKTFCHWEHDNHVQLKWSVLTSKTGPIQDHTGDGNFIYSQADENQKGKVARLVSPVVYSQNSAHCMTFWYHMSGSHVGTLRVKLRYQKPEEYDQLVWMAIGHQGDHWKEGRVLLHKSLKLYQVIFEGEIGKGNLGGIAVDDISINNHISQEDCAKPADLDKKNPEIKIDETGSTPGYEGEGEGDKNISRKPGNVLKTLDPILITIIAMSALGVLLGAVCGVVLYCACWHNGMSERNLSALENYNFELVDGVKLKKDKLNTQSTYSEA
Description: The affinity of AGuIX Ln@Mal-K(RB) and AGuIX Ln@Mal-K(RB)DKPPR to NRP-1 was determined as previously described in terms of IC50 in another study.

Row | Substance | ^1O2 quantum yield ΦΔ351(Tb) ([1]; λexc = 351 nm) | ^1O2 quantum yield ΦΔ558 ([1]; λexc = 558 nm, listed as AGuIX Ln@Mal-K(RB)DKPPR (Ln = Tb)) | percentage of population P1 [2] | percentage of population P2 [2] | Size, population P1 ([2]; Tris 10 mM and NaCl 125 mM) | Size, population P2 ([2]; Tris 10 mM and NaCl 125 mM) | Fluorescence quantum yield Φf558 [3] | Cell survival (clonogenic capability relative to control) (U-251 MG cells; X-ray 2 Gy (320 kV, 10 mA, 3 Gy/min), fraction of untreated non-irradiated cells, mean, triplicates from 3 experiments (n = 9)) | decrease of cell growth (clones) (U-251 MG cells; X-ray 2 Gy, p = 0.02) | RB fluorescence lifetime τf470 (RB fluorescence lifetime) | Zeta potential (ζ) (Zeta potential) | Ln luminescence lifetime τL (Tb) (Ln luminescence lifetime) | IC50 (NRP-1)
1 | Mal-K(RB)DKPPR [AGuIX Tb@Mal-K(RB)DKPPR, Mal-K(RB)DKPPR conjugated to thiolated AGuIX Tb NPs by thiol-maleimide click chemistry] | 0.36 | 0.68 | 46% | 54% | 5.4 nm | 32.0 nm | 0.11 | 0.43 | 57% | 2.8 ns | −14 mV | 345 µs | 
2 | Mal-K(RB)DKPPR [AGuIX Tb@Mal-K(RB)DKPPR] (not fully specified (N-terminus); printed as AGuIX Tb@Mal-K(RB)DKPPR; reading uncertain) [Mal-K(RB)DKPPR conjugated to thiolated AGuIX Tb NPs by thiol-maleimide click chemistry] |  |  |  |  |  |  |  |  |  |  |  |  | 6 ± 1.3 nM
